Patent US10919943B2, “Mutant proteins enabling agrochemical control of plant gene expression” (The Regents of the University of California, priority 2016, dated 2021)

Key:
[1] = tested on: HAB1; test: In vitro PP2C assay, ligand-promoted inhibition of GST-HAB1 by receptor; type: biochemical, Arabidopsis; conditions: ABA-promoted; FIG. 2
Description: (§1) In the presence of ABA, wild type PYR1 binds to HAB1 and docks into its active site, which inhibits its enzymatic activity by blocking access of substrates. To characterize the orthogonal PYR1^! and HAB1^! interaction biochemically, we produced recombinant forms of each protein in E. coli, along with the wild type form, and tested the wild type and orthogonal mutant for their ability to inhibit HAB1 and HAB1^! activities in vitro. We cloned PYR1^! into pET28 to generate 6×-His tagged receptor and cloned HAB1^! into pGEX-4T-1 to create a GST-fusion protein. The previously constructed (S.-Y. Park et al., 2009) wild type 6×-His-PYR1 and GST-HAB1 constructs were used for producing recombinant wild type proteins. The 6×-His-tagged receptors and GST-tagged PP2Cs were expressed and purified as previously described. Briefly, the proteins were expressed in BL21 [DE3]pLysS E. coli host cells at 18° C. overnight. Fusion proteins were purified from sonicated lysates using Ni-NTA agarose (Qiagen, USA) or Pierce™ Glutathione Agarose (Thermo Scientific) according to the manufacturer's instructions. PP2C assays were conducted in 96-well polystyrene flat-bottom microtitre plates (Greiner). […] The plates were read using a Victor 2 plate reader (PerkinElmer) (355 nm excitation, 460 nm emission) and assays run in triplicate. The PP2C activity values reported are expressed as percent control values, which were calculated by including the carrier solvent (1% DMSO) and the specific receptor assayed, but no ligand. […]
According to our current understanding, in order for ABA signaling to be initiated in vivo, PP2C activity must be inhibited to enable accumulation of active SnRK2 kinases. […] 4-methylumbeliferyl phosphate was added (1 mM final concentration) was added to the reactions after 30 minutes equilibration and plates were read by fluorimetry. The PP2C activity values reported are expressed as percent control values, which was calculated by including the carrier solvent (1% DMSO) and the specific receptor assayed, but no ligand.

[2] = tested on: HAB1; test: Yeast two hybrid of pBD-PYR1 site saturation mutants with pACT-HAB1 on 10 μM ABA, β-galactosidase staining; type: cell-based, Arabidopsis; parameters: key: x: Mutations in PYR1 that disrupt ABA-induced binding to PYR1 to HAB1; conditions: S. cerevisiae Y190, 10 μM ABA; dead = lack of visible staining in comparison to wild type control
Method in brief: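 S. cerevisiae Y190 co-expressing GAL4-DNA-binding-domain–PYR1 mutants and GAL4-activation-domain–HAB1 were spotted on SD (-Leu, -Trp) agar with 10 μM (+)-ABA for 2 days at 30° C. Colonies were chloroform-lysed and stained for β-galactosidase. Mutants lacking visible staining relative to wild type were scored as non-binding.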

[3] = target: T1, HAB1^! (Arabidopsis thaliana); test: In vitro PP2C assay, ABA-promoted inhibition of GST-HAB1^! by receptor; type: biochemical; conditions: in response to ABA; 100 nM receptor, 50 nM PP2C; FIG. 2
T1 construct: 6xHis (N); made in house; host or cells: E. coli BL21 [DE3]pLysS
Description: as §1, with “overnight.” for “overnight. Fusion proteins were purified from sonicated lysates using Ni-NTA agarose (Qiagen, USA) or Pierce™ Glutathione Agarose (Thermo Scientific) according to the manufacturer's instructions. PP2C assays were conducted in 96-well polystyrene flat-bottom microtitre plates (Greiner).”

[4] = target: T2, HAB1^! (Arabidopsis thaliana, UniProt O49686+Q9CAJ0, F108A/F159L/K59R/S122G/T162D/V393R/V81I/Y58H); test: Yeast two hybrid, mandipropamid-promoted interaction of PYR1 variants with HAB1^!; type: cell-based; conditions: FIG. 3
T2 construct: expressed in transfected cells
T2 sequence (Q9CAJ0 4-511 V393R, one chain of several): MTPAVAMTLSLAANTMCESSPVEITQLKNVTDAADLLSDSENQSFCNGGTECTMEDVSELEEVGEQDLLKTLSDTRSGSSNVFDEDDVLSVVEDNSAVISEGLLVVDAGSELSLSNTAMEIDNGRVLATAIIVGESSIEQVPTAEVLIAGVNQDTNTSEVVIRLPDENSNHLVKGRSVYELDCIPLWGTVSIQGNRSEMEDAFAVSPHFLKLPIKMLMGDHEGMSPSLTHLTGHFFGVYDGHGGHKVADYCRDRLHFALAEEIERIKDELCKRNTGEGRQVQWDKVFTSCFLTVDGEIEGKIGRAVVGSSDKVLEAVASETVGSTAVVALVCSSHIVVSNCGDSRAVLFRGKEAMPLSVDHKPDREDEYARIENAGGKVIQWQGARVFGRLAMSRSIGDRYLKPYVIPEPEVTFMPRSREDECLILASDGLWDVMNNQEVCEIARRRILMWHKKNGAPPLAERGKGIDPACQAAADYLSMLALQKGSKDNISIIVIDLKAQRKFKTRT
Description: (§2) To engineer orthogonal mandipropamid responsiveness, we introduced the PYR1^! mutation into the PYR1^MANDI receptor to create a septuple mutant called PYR1^!-MANDI (PYR1^Y58H;K59R;V81I;F108A;S122G;F159L;T162D). This mutant interacts with HAB1^! and HAB^!-2 in response to low μM mandipropamid in yeast two-hybrid assays, but is ˜100-fold less sensitive than the PYR1^MANDI/HAB1 interaction, which responds to concentrations in the low nM range (FIG. 3).

[5] = tested on: HAB1^!-2; test: Yeast two hybrid, mandipropamid-promoted interaction of PYR1 variants with HAB1^!-2; type: cell-based; conditions: FIG. 3, FIG. 4
Description: as §2
To improve sensitivity, we mutagenized ligand contacting and interface residues in PYR1^!-MANDI using NNK primers, pooled the mutant libraries, and used the mutagenized receptors in selection experiments using to identify enhancer mutations. The NNK mutagenesis screen targeted the following residues: P55, H60, F61, I62, K63, V83, S85, G86, L87, P88, A89, S92, E94, I110, H115, R116, L117, Y120, E141, P148, G150, N151, D154, D155, T156, M158, A160, V163, V164, L166, N167, and K170. […] Since M158 and A160 flank the […] mutation present in PYR1^MANDI, we inferred that the closely located orthogonalizing T162D mutation in PYR1^!-MANDI may have reduced mandipropamid sensitivity by altering the local structure of the C-terminal α3-helix, which participates in ligand-induced conformational changes needed for PP2C binding (Nishimura et al., 2009). We therefore simultaneously mutagenized positions M158, F159 and A160 using a primer with degenerate NNK codons at all three positions. F159 was included in this mutagenesis because we have previously observed that multiple substitutions at F159 (A,C,I,L,M,T, or V) are permissive for mandipropamid responsiveness (S. Y. Park et al., n.d.), and sought to test whether residues other than leucine at position 159 might function better in the context of simultaneous changes to both A160 and M158. The mutagenic primer was used in QuickChange mutagenesis reactions using pBD-PYR1^!-MANDI template, and a library of ˜12,000 clones was generated. Plasmid DNA for the library was prepared from pooled E. coli transformants, and subsequently transformed into S. cerevisiae strain MAV99 harboring pACT-HAB1^!-2. ˜20,000 yeast transformants were generated, pooled, and plated onto SD(-Leu,-Trp) agar media supplemented with 0.1% fluorotic acid (to select against mutants that interact in a ligand-independent fashion). The surviving cells were collected and plated onto SD(Leu,-Trp,-Ura) plates supplemented with 50 nM mandipropamid. The colonies displaying the best uracil-independent growth were isolated and retested on different mandipropamid concentrations and then stained in β-galactosidase assays to rank their relative strength.

[6] = tested on: Arabidopsis; test: Overexpression of HAB1^!-2 (35S::GFP-HAB1^!-2) in Arabidopsis, T1 plant phenotype; type: in vivo
Description: To investigate the effects of overexpressing HAB1^!-2 in Arabidopsis, we used Agrobacterium mediated transformation to generate 35S::GFP-HAB1^!-2 transgenic plants. HAB1^!-2 was cloned from pACT-HAB1^!-2 into pEGAD, a binary vector suitable for plant transformation, generating a 35S-driven GFP-HAB1^!-2 fusion protein. The clone was transformed into Agrobacterium and the floral dip method used to transform Arabidopsis. After selection of T0 seed on soil containing glufosinate, several T1 seedlings were identified. […] As an alternate strategy, we eliminated HAB1's catalytic activity by introducing a mutation in a conserved metal-ion binding residue (D204), which is homologous to D131A mutation in ABI1, previously shown to eliminate phosphatase activity without disrupting wild type receptor-ABI1 interactions (Liang et al., 2011). We used QuickChange mutagenesis to introduce the D204A mutation into pACT-HAB1^!-2, generating pACT-HAB1^!-3. When tested for mandipropamid induced interactions with pBD-PYR1*^-MANDI, HAB1^!-3 is ˜10-fold less sensitive to mandipropamid relative to HAB1^!-2 (FIG. 5).

B1: T162D: PYR1 mutant T162D, denoted PYR1^! (protein, UniProt O49686 1-191, looked up, variant T162D)
Abscisic acid receptor PYR1: MPSELTPEERSELKNSIAEFHTYQLDPGSCSSLHAQRIHAPPELVWSIVRRFDKPQTYKHFIKSCSVEQNFEMRVGCTRDVIVISGLPANTSTERLDILDDERRVTGFSIIGGEHRLTNYKSVTTVHRFEKENRIWTVVLESYVVDMPEGNSEDDTRMFADDVVKLNLQKLATVAEAMARNSGDGSGSQVT
For B1, the “inhibition of HAB1 phosphatase activity” value [1] was “unable to inhibit”, the “Mutations in PYR1 that disrupt ABA-induced binding to PYR1 to HAB1” value [2] was “x” and the “inhibition of HAB1^! phosphatase activity” value [3] was “does not strongly inhibit”.

B2: PYR1^!-MANDI: septuple PYR1 mutant (protein, UniProt O49686 1-191, looked up, variant Y58H K59R V81I F108A S122G F159L T162D)
Abscisic acid receptor PYR1: MPSELTPEERSELKNSIAEFHTYQLDPGSCSSLHAQRIHAPPELVWSIVRRFDKPQTHRHFIKSCSVEQNFEMRVGCTRDIIVISGLPANTSTERLDILDDERRVTGASIIGGEHRLTNYKGVTTVHRFEKENRIWTVVLESYVVDMPEGNSEDDTRMLADDVVKLNLQKLATVAEAMARNSGDGSGSQVT
B2 was tested, and the “mandipropamid concentration to which the interaction responds” value [4] was “low μM” and the “mandipropamid concentration to which the interaction responds” value [5] was “low μM”.

B3: HAB1^!-2: HAB1 double mutant V393R, R505A (protein)
chain: MTPAVAMTLSLAANTMCESSPVEITQLKNVTDAADLLSDSENQSFCNGGTECTMEDVSELEEVGEQDLLKTLSDTRSGSSNVFDEDDVLSVVEDNSAVISEGLLVVDAGSELSLSNTAMEIDNGRVLATAIIVGESSIEQVPTAEVLIAGVNQDTNTSEVVIRLPDENSNHLVKGRSVYELDCIPLWGTVSIQGNRSEMEDAFAVSPHFLKLPIKMLMGDHEGMSPSLTHLTGHFFGVYDGHGGHKVADYCRDRLHFALAEEIERIKDELCKRNTGEGRQVQWDKVFTSCFLTVDGEIEGKIGRAVVGSSDKVLEAVASETVGSTAVVALVCSSHIVVSNCGDSRAVLFRGKEAMPLSVDHKPDREDEYARIENAGGKVIQWQGARVFGRLAMSRSIGDRYLKPYVIPEPEVTFMPRSREDECLILASDGLWDVMNNQEVCEIARRRILMWHKKNGAPPLAERGKGIDPACQAAADYLSMLALQKGSKDNISIIVIDLKAQAKFKTRT
modifications: left off: small tags and cut ends
notes: HAB1 double mutant V393R, R505A
In the case of B3, the “phenotype of T1 plants” value [6] is reported as “symptoms of severe ABA insensitivity, including dwarf stature and high sensitivity to water deficit”.
